Measurements from article PMC5431456, “Structure aided design of a Neu5Gc specific lectin” (Scientific Reports, 2017).

B1: SubB ΔS106/ΔT107/E108D (natural protein)
chain: EWTGDARDGMFSGVVITQFHTGQIDNKPYFCIEGKQSAGSSISACSMKNSSVWGASFSTLYNQALYFYTTGQPVRIYYKPGVWTYPPFVKALTSNALVGLSTCTTDCFGPDRKKNS
notes: source: E. coli BL21(DE3), pET-23(+), purified (Ni-NTA)
B2: bovine α1-acid glycoprotein (AGP) (natural protein)
chain: QSPECANLMTVAPITNATMDLLSGKWFYIGSAFRNPEYNKSARAIQAAFFYLEPRHAEDKLITREYQTIEDKCVYNCSFIKIYRQNGTLSKVESDREHFVDLLLSKHFRTFMLAASWNGTKNVGVSFYADKPEVTQEQKKEFLDVIKCIGIQESEIIYTDEKKDACGPLEKQHEEERKKETEAS
modifications: glycans that contain both Neu5Ac and Neu5Gc
notes: also called Bovine α1-AGP; bovine AGP
B3: Subtilase cytotoxin B subunit (SubB), wild type (natural protein)
chain: EWTGDARDGMFSGVVITQFHTGQIDNKPYFCIEGKQSAGSSISACSMKNSSVWGASFSTLYNQALYFYTTGQPVRIYYKPGVWTYPPFVKALTSNALVGLSTCTTSTECFGPDRKKNS
notes: also called Wild type SubB; wild-type SubB; source: E. coli BL21(DE3), pET-23(+), purified (Ni-NTA)
B4: SubB S106A/T107A (natural protein)
chain: EWTGDARDGMFSGVVITQFHTGQIDNKPYFCIEGKQSAGSSISACSMKNSSVWGASFSTLYNQALYFYTTGQPVRIYYKPGVWTYPPFVKALTSNALVGLSTCTTAAECFGPDRKKNS
notes: as for B1

Legend:
Details in all cases: both partners purified
[1] = biological target: B2; experiment: SPR
SubB ΔS106/ΔT107 = biological target: T1, SubB ΔS106/ΔT107 (Escherichia coli, UniProt Q6EZC3 24-141, ΔS106/ΔT107); experiment: SPR
T1 construct: source: E. coli BL21(DE3), pET-23(+), purified (Ni-NTA)

[2] = biological target: B2; experiment: SPR; Biacore T100; SubB or SubB mutant immobilised on a series S CM5 chip (flow cell 1 blank); AGP flowed over, 0.01-100 µM in range finding; single cycle kinetics

Binder	Kd [1] [nM]	further results
B1	32.5 ± 2.6	–
B2	–	Kd (SubB ΔS106/ΔT107): 115 ± 37 nM
B3	–	Kd [2]: 156 ± 22 nM
B4	164 ± 10	–
